How the values were obtained:
[1] = molecular target: MIF-6xHis (human macrophage migration inhibitory factor, hexahistidine-tagged) (human, UniProt P14174 2-115); test: cell-based or functional assay
[2] = molecular target: RED-NHS-MIF-6xHis (human MIF-6xHis labelled with the RED-NHS dye) (human, UniProt P14174 2-115, RED-NHS dye (chemically labeled)); test: MST
SEC = molecular target: the molecule itself; test: SEC
crystal structure = molecular target: the molecule itself; test: crystal structure

RED-NHS-MIF-6xHis (human MIF-6xHis labelled with the RED-NHS dye), sequence (P14174 2-115): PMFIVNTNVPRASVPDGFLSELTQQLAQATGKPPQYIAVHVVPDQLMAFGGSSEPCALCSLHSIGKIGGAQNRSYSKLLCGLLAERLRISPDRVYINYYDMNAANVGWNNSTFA
MIF-6xHis (human macrophage migration inhibitory factor, hexahistidine-tagged), sequence (P14174 2-115): as above

Binder | synergy in the CXCR4 yeast lacZ reporter, 10 µM MIF with 10 µM MDL2 [1] | Kd [2] [µM] | stoichiometry N (SEC) | stoichiometry N (crystal structure)
MDL2-6xHis (Arabidopsis thaliana MIF/D-DT-like protein 2, hexahistidine-tagged) (natural protein) PCLNLSTNVNLDGVDTSSILSEASSTVAKIIGKPENYVMIVLKGSVPMSFGGTEDPAAYGELVSIGGLNADVNKKLSAAVSAILETKLSVPKSRFFLKFYDTKGSFFGWNGATL | ~3 fold over the MIF-MDL1 combination | < 5 | 3 | –
MDL3-6xHis (Arabidopsis thaliana MIF/D-DT-like protein 3, hexahistidine-tagged) (natural protein, UniProt F4J4H3 1-112, looked up) MPCLYITTNVNFDGVNTDPFYSEVTKAVASIVGRPQNLVMVVLKGSVEIVFGGNKEAAAYAEIVSMGGITKQVKRELIATVGSILHTHFSIHPTRFIFKVFDINSLPLPSKL | – | < 5 | – | 3
